From US6994856 (Genentech, dated 2006)
gD epitope tag = herpes gD epitope tag left after the gD signal sequence; Fc (human IgG1) = Fc portion of human IgG1

B1: NRG3^EGF.Fc (Fc fusion)
chain: {gD epitope tag}-ERSEHFKPCRDKDLAYCLNDGECFVIETLTGSHKHCRCKEGYQGVRCDQFLPKTDSILSDP-{Fc (human IgG1)}
modifications: not fully specified
notes: Secreted from CHO cells, purified on protein A; MW 90 kDa; also called NRG3-EGF-Fc fusion protein; not shown: Fc portion of human IgG1

Experiments:
[1] = target: T1, ErbB4.Fc (UniProt Q15303 26-651, limits assumed); experiment: displacement of 125I-NRG3^EGF.Fc from immobilized ErbB4.Fc by NRG1^EGF
T1 construct: also called soluble form of ErbB4 receptor; immobilized soluble ErbB4 receptor; not shown: Fc part, not described; the protein was captured on the plate by goat anti-human antibody
T1 sequence (looked up): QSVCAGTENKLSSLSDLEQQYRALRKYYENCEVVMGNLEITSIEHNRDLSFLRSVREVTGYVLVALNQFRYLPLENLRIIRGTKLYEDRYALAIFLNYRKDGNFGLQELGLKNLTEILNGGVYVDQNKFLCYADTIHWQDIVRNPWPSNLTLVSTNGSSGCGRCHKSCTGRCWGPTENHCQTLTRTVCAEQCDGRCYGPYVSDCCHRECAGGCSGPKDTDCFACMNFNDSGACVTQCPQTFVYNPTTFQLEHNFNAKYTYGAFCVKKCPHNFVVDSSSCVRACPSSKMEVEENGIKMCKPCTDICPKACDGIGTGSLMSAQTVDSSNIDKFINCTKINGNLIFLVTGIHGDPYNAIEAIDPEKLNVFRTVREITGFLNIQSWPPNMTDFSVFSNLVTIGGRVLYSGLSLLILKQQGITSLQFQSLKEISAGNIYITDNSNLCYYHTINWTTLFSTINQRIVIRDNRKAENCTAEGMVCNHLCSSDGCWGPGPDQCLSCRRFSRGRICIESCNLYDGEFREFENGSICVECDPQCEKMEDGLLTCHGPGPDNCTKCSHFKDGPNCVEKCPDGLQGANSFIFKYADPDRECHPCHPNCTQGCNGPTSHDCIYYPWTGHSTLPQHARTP

[2] = target: T2, human ErbB3 receptor on cells (human, UniProt P21860 20-1342); experiment: FACS on K562^erbB3 cells
T2 construct: whole, on cells; also called HER3; K562^erbB3 cells
Procedure: (§1) In FIGS. 6A–6D, parental K562 cells (FIG. 6A) or K562 cells expressing either ErbB2 receptor (K562^erbB2 cells; FIG. 6B), ErbB3 receptor (K562^erbB3 cells; FIG. 6C) or ErbB4 receptor (K562^erbB4 cells; FIG. 6D) were examined for the expression of corresponding receptors. Cells were incubated with anti-ErbB2 receptor, anti-ErbB3 receptor or anti-ErbB4 receptor antibodies as indicated before PE-conjugated secondary antibody was added. "LOG PE" represents relative fluorescent intensity and "Counts" represents cell numbers. In FIGS. 6E–6H, NRG3^EGF.Fc is shown by FACS analysis to bind to ErbB4 receptor expressing cells. Parental K562 cells (FIG. 6E), K562^erbB2 cells (FIG. 6F), K562^erbB3 cells (FIG. 6G) and K562^erbB4 cells (FIG. 6H) were incubated with or without NRG3^EGF.Fc (containing gD tag) for 1 hour, followed by anti-gD-tag primary antibody and PE-conjugated secondary antibody.
(§2) C. FACS Analysis. For each binding reaction, 5×10^5 stably transfected K562 cells were suspended in PBS/2% BSA at 4° C. for 30 min followed by incubation with 5 µg of isolated, purified NRG3^EGF.Fc (MW 90 kDa) in a volume of 0.25 ml on ice for 60 min. 1 µg of primary antibody (anti-gD or anti-ErbB receptor) and secondary PE-conjugated (CALTAG, Calif., goat anti-mouse, 1:100 dilution) antibodies were added sequentially with 30–60 min incubation time and extensive washes before each addition. […]

[3] = target: T1, ErbB4.Fc; experiment: displacement of 125I-NRG3^EGF.Fc from immobilized ErbB4.Fc by unlabeled NRG3^EGF.Fc
Procedure: The displacement binding assays were performed in Maxisorp C 96-wells (Nunc, Naperville, Ill.). Goat anti-human antibody (Boehringer Mannheim, Germany) was coated on the plate at a concentration of 0.2 µg/well in 100 µl of 50 mM sodium carbonate buffer (pH 9.6) at 4° C., overnight. The plate was blocked by 1% BSA in TBST buffer (25 mM Tris, pH 7.5, 150 mM NaCl, 0.02% Tween 20) for 30 min at room temperature (RT). A soluble form of ErbB4 receptor was added at 15 ng/well in 1% BSA/TBST and incubated for 1.5 hr at RT. To prevent radiolabeled protein from interacting with residual goat anti-human antibodies, 1 µM of a humanized monoclonal antibody (rhuMAB HER2; Carter, P. et al. (1992) *Proc. Natl. Acad. Sci. USA* 89:4285–9) was added to the plate for 20 min and was included in the subsequent binding reaction.
The unbound material was washed by TBST extensively, and the bound radioactivity was counted on a Beckman IsoData gamma-counter (Smith-Kline Beckman, Pa.). Data was analyzed using a nonlinear regression computer program.

[4] = target: T3, human ErbB2 receptor on cells (human, UniProt P04626 23-1255); experiment: FACS on K562^erbB2 cells
T3 construct: whole, on cells; also called HER2; K562^erbB2 cells
Procedure: as §1, §2

T2 sequence (P21860 20-1342): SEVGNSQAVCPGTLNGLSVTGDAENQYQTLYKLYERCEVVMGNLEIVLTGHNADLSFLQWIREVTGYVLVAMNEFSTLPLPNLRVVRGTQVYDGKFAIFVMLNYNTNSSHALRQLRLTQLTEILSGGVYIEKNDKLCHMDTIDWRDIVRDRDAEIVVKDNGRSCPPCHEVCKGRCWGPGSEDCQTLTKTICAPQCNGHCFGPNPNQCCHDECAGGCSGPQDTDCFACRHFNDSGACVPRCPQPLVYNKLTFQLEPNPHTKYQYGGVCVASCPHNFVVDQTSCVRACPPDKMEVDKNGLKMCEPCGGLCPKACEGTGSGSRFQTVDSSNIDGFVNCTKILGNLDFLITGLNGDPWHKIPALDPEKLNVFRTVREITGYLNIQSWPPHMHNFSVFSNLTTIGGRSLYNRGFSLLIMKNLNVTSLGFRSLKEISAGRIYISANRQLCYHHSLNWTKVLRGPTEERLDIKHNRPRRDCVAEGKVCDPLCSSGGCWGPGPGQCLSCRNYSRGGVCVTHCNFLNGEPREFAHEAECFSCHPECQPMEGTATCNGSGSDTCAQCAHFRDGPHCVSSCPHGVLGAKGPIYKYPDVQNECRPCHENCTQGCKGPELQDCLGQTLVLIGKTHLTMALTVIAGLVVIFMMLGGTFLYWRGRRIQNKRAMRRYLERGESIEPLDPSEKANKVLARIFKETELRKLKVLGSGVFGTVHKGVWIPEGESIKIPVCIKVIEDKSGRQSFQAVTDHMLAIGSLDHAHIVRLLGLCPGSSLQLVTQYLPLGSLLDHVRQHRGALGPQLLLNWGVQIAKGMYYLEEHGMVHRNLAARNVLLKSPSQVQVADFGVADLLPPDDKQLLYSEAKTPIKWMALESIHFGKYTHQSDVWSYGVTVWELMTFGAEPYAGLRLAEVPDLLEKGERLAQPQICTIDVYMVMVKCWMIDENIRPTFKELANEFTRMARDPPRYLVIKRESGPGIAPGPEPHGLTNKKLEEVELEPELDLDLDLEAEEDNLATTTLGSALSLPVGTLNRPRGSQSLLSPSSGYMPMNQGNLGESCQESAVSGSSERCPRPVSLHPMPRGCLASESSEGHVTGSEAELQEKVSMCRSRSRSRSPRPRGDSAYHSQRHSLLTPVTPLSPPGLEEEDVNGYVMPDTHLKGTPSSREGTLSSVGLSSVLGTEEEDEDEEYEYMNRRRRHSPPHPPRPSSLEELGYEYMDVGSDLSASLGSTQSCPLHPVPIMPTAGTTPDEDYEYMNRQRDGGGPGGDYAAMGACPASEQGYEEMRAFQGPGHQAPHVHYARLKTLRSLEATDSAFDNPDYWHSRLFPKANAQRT

Molecule | Ki [1] | binding result [2] | Ki [3] | binding result [4]
NRG1^EGF (from UniProt Q02297 177-244) (ligand) | 1 nM |  |  | 
B1 |  | no binding (tested: 5 µg in a volume of 0.25 ml) | 9 nM | no binding (tested: 5 µg in a volume of 0.25 ml)
